According to patent US6403769:

Tests used:
[1] = molecular target: keratinocyte growth factor receptor (KGFR) (UniProt P21803); test: cell-based or functional assay
[2] = molecular target: KGFR-HFc fusion protein (construct not specified); test: binding of 125I-KGF to KGFR-HFc in solution, capture on Gamma Bind G
[3] = molecular target: keratinocyte growth factor receptor (KGFR) (UniProt P21803); test: competition with 125I-KGF on 32D cells expressing KGFR

- half-maximal stimulation of 3H-thymidine uptake in BALB/MK cells [1]: 10 pM
- ligand concentration at which saturable binding was achieved [2]: 15 to 25 ng/mL
- Kd [3]: 0.13 nM
B1: keratinocyte growth factor (KGF) (ligand, human, UniProt P21781 32-194, looked up)
chain: CNDMTPEQMATNVNCSSPERHTRSYDYMEGGDIRVRRLFCRTQWYLRIDKRGKVKGTQEMKNNYNIMEIRTVAVGIVAIKGVESEFYLAMNKEGKLYAKKECNEDCNFKELILENHYNTYASAKWTHNGGEMFVALNQKGIPVRGKKTKKEQKTAHFLPMAIT
